Test results as given in article PMC5507214.

Key:
[1] = molecular target: RNaseH1 D210N;RPA (Homo sapiens;Homo sapiens, UniProt O60930;P27694;P15927;P35244 27-286;1-616;1-270;1-121, D210N|); experiment: EMSA
[2] = molecular target: T1, RNaseH1 D210N (Homo sapiens, UniProt O60930 27-286, D210N); experiment: EMSA
T1 sequence: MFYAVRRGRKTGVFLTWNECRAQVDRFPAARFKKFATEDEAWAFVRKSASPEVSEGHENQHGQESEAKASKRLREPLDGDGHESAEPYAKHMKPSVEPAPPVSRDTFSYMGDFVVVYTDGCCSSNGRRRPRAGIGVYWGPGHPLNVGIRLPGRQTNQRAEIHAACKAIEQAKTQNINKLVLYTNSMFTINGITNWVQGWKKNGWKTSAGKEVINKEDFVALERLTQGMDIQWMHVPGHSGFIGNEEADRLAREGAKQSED

Chain of RNaseH1 D210N;RPA (P27694 whole entry, chain 2 of 3): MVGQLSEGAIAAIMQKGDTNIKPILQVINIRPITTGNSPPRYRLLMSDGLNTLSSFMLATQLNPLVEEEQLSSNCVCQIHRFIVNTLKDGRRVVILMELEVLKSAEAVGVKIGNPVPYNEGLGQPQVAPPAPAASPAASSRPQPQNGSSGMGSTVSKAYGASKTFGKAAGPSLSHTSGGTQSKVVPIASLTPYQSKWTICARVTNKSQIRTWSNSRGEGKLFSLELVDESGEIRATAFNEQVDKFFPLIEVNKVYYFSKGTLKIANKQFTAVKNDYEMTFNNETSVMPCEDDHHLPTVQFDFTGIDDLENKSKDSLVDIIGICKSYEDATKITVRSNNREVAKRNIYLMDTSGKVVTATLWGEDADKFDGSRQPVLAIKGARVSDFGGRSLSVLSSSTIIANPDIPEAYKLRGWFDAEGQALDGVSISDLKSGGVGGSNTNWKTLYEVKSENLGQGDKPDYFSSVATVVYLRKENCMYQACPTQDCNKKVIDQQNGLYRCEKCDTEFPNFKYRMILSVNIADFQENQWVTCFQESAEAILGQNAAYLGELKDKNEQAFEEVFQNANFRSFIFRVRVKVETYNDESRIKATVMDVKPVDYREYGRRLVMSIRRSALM
Chain of RNaseH1 D210N;RPA (P15927 whole entry, chain 3 of 3): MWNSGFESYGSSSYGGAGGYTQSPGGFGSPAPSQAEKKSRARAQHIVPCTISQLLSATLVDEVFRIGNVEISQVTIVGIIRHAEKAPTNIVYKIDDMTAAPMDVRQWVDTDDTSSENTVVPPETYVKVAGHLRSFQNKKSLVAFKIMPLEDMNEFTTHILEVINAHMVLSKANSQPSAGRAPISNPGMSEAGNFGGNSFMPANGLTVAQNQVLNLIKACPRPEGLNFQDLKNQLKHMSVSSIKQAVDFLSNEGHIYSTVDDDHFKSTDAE
Chain of RNaseH1 D210N;RPA (P35244 whole entry, chain 4 of 3): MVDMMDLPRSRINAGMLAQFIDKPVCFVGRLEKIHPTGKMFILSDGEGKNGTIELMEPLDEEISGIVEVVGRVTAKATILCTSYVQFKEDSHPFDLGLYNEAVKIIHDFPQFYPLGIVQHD

B1: R:D (25-bp RNA:DNA hybrid) (DNA:RNA)
RNA: GCAGCUGGCACGACAGGUAUGAAUC
DNA: GATTCATACCTGTCGTGCCAGCTGC
B1: binds [1]; binds [2].
